This passage reports SPOT signal as a fraction of Bim BH3's signal on the same receptor and array results from paper PMC4072508, “Genome-Wide Prediction and Validation of Peptides That Bind Human Prosurvival Bcl-2 Proteins” (PLoS Computational Biology, 2014).

Common to all, as to assay: peptide SPOT array, c-Myc-tagged receptor at 1 uM or 100 nM, anti-c-Myc-Cy3
One assay deals with Bcl-xL, Q07817.
The next assay has as its target T1, Bfl-1, Q16548.
T1 chain: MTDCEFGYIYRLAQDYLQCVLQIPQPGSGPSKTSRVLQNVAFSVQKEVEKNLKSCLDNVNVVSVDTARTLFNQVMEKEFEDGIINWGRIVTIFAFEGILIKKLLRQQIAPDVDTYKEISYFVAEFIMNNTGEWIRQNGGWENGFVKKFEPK

For another assay, the target named is T2, Mcl-1, Q07820.
T2 chain: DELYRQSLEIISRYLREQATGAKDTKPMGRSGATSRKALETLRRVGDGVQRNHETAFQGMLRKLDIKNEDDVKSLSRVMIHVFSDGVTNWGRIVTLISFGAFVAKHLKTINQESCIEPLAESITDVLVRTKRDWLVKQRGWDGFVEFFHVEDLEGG

Chain of Bcl-xL, Q07817 (Q07817 1-209): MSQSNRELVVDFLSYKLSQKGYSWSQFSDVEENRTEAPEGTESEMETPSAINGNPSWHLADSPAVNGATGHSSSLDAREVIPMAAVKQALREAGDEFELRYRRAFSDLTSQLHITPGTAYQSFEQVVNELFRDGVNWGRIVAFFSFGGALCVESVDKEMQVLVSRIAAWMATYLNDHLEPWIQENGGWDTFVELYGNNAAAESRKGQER

For the molecule VLAPVQLGKWLVLFCDEINLPDMDKY [DYNC1H1], the SPOT signal as a fraction of Bim BH3's signal on the same receptor and array was 0.36 with Bcl-xL, Q07817; 0.08 in the assay with Bfl-1, Q16548; 0.05 in the assay with Mcl-1, Q07820.
The like results for LWAAQRYGRELRRMLDEFVDSFKKGL [BAD] were, in that order, 0.49, 0.42 and 0.41.
On to SWFIQSLCAMDKQYADKLEFMHILTR [CASP3], for which the SPOT signal as a fraction of Bim BH3's signal on the same receptor and array came to 0.08 in the assay with Bcl-xL, Q07817; 0.05 with Bfl-1, Q16548; 0.06 with Mcl-1, Q07820.
The matching figures for PAKKMTLSEIDRWICDNFPYYKNAGI: 0.58, 0.26 and 0.29.
As to VHKHSRLAEVLQLGSDILPQYKQEAP [KCNH1], the SPOT signal as a fraction of Bim BH3's signal on the same receptor and array with Bcl-xL, Q07817 was 0.17; with Bfl-1, Q16548, 0.09; in the assay with Mcl-1, Q07820, 0.21.
Consider NNNMDVESRTMATMGDTLASRGLLDA [SEC16A], for which the SPOT signal as a fraction of Bim BH3's signal on the same receptor and array with Bcl-xL, Q07817 is 0.04; with Bfl-1, Q16548, 0.06; with Mcl-1, Q07820, 0.03.
Turning to GYPFNDVCQWFIDRADLIFVVFDPTK [SRL], the SPOT signal as a fraction of Bim BH3's signal on the same receptor and array in the assay with Bcl-xL, Q07817 stood at 0.07; with Bfl-1, Q16548 it was 0.05; in the assay with Mcl-1, Q07820 it was 0.06.
In the case of MEMYQPSAVVLQCGLDSLSGDRLGCF [HDAC2], the SPOT signal as a fraction of Bim BH3's signal on the same receptor and array is 0.06 with Bcl-xL, Q07817; 0.03 with Bfl-1, Q16548; 0.04 with Mcl-1, Q07820.
Consider YIVLGLRKTTLQKVGKEVAELVGRVG [NLRX1], for which the SPOT signal as a fraction of Bim BH3's signal on the same receptor and array was found to be 0.36 with Bcl-xL, Q07817; 0.26 with Bfl-1, Q16548; 0.33 with Mcl-1, Q07820.
Take DSLLWKLAGLLRESGDVVLSGCSTLS [STK11IP]: the SPOT signal as a fraction of Bim BH3's signal on the same receptor and array in the assay with Bcl-xL, Q07817 stood at 0.06; in the assay with Bfl-1, Q16548, 0.04; in the assay with Mcl-1, Q07820, 0.05.
The matching figures for CHGLRELALNYHLLSDELLLALSSEK: 0.07, 0.04 and 0.06.
Consider ISSYMVLAPVDGYLGDRYNRKYLMCG [SPNS1], for which the SPOT signal as a fraction of Bim BH3's signal on the same receptor and array with Bcl-xL, Q07817 is 1.03; with Bfl-1, Q16548, 0.68; with Mcl-1, Q07820, 0.69.
Take LLDFFMVSILFSKLGDLLHKLQFVLT [PCNXL2]: the SPOT signal as a fraction of Bim BH3's signal on the same receptor and array with Bcl-xL, Q07817 was determined as 0.11; in the assay with Bfl-1, Q16548, 0.06; in the assay with Mcl-1, Q07820, 0.09.
For PKKKMTLSEIDQWICDNFPYYREAGS [FOXJ3], the SPOT signal as a fraction of Bim BH3's signal on the same receptor and array with Bcl-xL, Q07817 came to 0.08; with Bfl-1, Q16548, 0.06; with Mcl-1, Q07820, 0.1.
Turning to CHGLRELALNYHLLLDELLLALSSEK, the SPOT signal as a fraction of Bim BH3's signal on the same receptor and array with Bcl-xL, Q07817 turned out to be 0.07; with Bfl-1, Q16548, 0.04; with Mcl-1, Q07820, 0.06.
LNLLMISVAFLRVIGDQLEKLCDSLL [SLC38A8]: the SPOT signal as a fraction of Bim BH3's signal on the same receptor and array in the assay with Bcl-xL, Q07817 turned out to be 0.05; with Bfl-1, Q16548, 0.05; with Mcl-1, Q07820 it was 0.05.
Take SEIMHSFAKCDEVMGDGCLNNEHFEE [IPO5]: the SPOT signal as a fraction of Bim BH3's signal on the same receptor and array was found to be 0.09 with Bcl-xL, Q07817; 0.03 in the assay with Bfl-1, Q16548; 0.04 in the assay with Mcl-1, Q07820.
The matching figures for PAKKMTLSEIYRWILDNFPYYKNAGI: 0.82, 0.45 and 0.42.
The like results for LSIIYTLVEIFQNILDTNLADFTAGL [SLC26A4] were, in that order, 0.06, 0.03 and 0.05.
The matching figures for SQEPLEKAQLLALVGDQLIQSHHYAA [MCF2L2]: 0.06, 0.04 and 0.04.
In the case of ADVHGIWSRLFCDFLDEFEVLDTTGE [UBA6], the SPOT signal as a fraction of Bim BH3's signal on the same receptor and array with Bcl-xL, Q07817 is 0.06; with Bfl-1, Q16548, 0.04; with Mcl-1, Q07820, 0.05.
As to PALLVHWAKCLQKMLRGLNSSYDQQE [RGPD2], the SPOT signal as a fraction of Bim BH3's signal on the same receptor and array with Bcl-xL, Q07817 came out at 0.55; in the assay with Bfl-1, Q16548, 0.39; in the assay with Mcl-1, Q07820 it was 0.45.
With SFLSAHCASHLAWFGDSLTSLSQRLQ [TMEM214], the SPOT signal as a fraction of Bim BH3's signal on the same receptor and array turned out to be 0.09 with Bcl-xL, Q07817; 0.09 with Bfl-1, Q16548; 0.06 in the assay with Mcl-1, Q07820.
Turning to TAGLRPGARLLRVCLQTLPSLRPEAA [SIPA1], the SPOT signal as a fraction of Bim BH3's signal on the same receptor and array with Bcl-xL, Q07817 is 0.86; with Bfl-1, Q16548, 0.57; in the assay with Mcl-1, Q07820, 0.63.
In the case of VLELHPGAQRDHIGCDEVYYLGEGEA [HEXDC], the SPOT signal as a fraction of Bim BH3's signal on the same receptor and array with Bcl-xL, Q07817 worked out at 0.05; in the assay with Bfl-1, Q16548 it was 0.04; in the assay with Mcl-1, Q07820 it was 0.04.
As for MPYMEAVIHEIQRFGDVIPMSLARRV [CYP2A6], the SPOT signal as a fraction of Bim BH3's signal on the same receptor and array in the assay with Bcl-xL, Q07817 amounted to 0.15; in the assay with Bfl-1, Q16548, 0.1; in the assay with Mcl-1, Q07820 it was 0.1.
Turning to APGEEDLCAAFNVILDNVGKDWRRLA [FADD], the SPOT signal as a fraction of Bim BH3's signal on the same receptor and array with Bcl-xL, Q07817 stood at 0.06; with Bfl-1, Q16548, 0.04; in the assay with Mcl-1, Q07820 it was 0.06.
With SKEVAILCSFDLGLGDSCFNTQLLSI [MFSD11], the SPOT signal as a fraction of Bim BH3's signal on the same receptor and array with Bcl-xL, Q07817 is 0.08; with Bfl-1, Q16548, 0.03; with Mcl-1, Q07820, 0.04.
